T1: ECSIT_(CTER) (residues 221-431) (human, UniProt Q9BQ95 221-431)
T1 chain: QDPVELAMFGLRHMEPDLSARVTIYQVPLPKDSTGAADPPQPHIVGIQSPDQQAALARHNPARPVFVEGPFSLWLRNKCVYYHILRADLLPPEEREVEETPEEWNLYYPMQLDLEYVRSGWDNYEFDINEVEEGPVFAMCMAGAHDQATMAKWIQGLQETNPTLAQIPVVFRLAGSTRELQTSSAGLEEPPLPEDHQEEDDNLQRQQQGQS

B1: ACAD9WT (mature ACAD9, residues 38-621) (enzyme, human, UniProt Q9H845 38-621, looked up)
chain: AFAKELFLGKIKKKEVFPFPEVSQDELNEINQFLGPVEKFFTEEVDSRKIDQEGKIPDETLEKLKSLGLFGLQVPEEYGGLGFSNTMYSRLGEIISMDGSITVTLAAHQAIGLKGIILAGTEEQKAKYLPKLASGEHIAAFCLTEPASGSDAASIRSRATLSEDKKHYILNGSKVWITNGGLANIFTVFAKTEVVDSDGSVKDKITAFIVERDFGGVTNGKPEDKLGIRGSNTCEVHFENTKIPVENILGEVGDGFKVAMNILNSGRFSMGSVVAGLLKRLIEMTAEYACTRKQFNKRLSEFGLIQEKFALMAQKAYVMESMTYLTAGMLDQPGFPDCSIEAAMVKVFSSEAAWQCVSEALQILGGLGYTRDYPYERILRDTRILLIFEGTNEILRMYIALTGLQHAGRILTTRIHELKQAKVSTVMDTVGRRLRDSLGRTVDLGLTGNHGVVHPSLADSANKFEENTYCFGRTVETLLLRFGKTIMEEQLVLKRVANILINLYGMTAVLSRASRSIRIGLRNHDHEVLLANTFCVEAYLQNLFSLSQLDKYAPENLDEQIKKVSQQILEKRAYICAHPLDRTC
notes: human ACAD9, mature form, residues 38-621; E. coli codon-optimised synthetic gene; Cloned into pET-21d(+); Plasmid details are in Supplementary Data 1; source: E. coli C43 (DE3), purified (HisTrap, dialysed in SEC buffer)
B2: ACAD9_(S191A) (enzyme, human, UniProt Q9H845 38-621, looked up)
chain: B1 chain with S154A
notes: human ACAD9, residues 38-621, S191A; One FAD per protomer in the cryo-EM structure; source: E. coli C43 (DE3), purified (HisTrap, dialysed in SEC buffer)
B3: ACAD9_(A184S/SR194TS) (enzyme, human, UniProt Q9H845 38-621, looked up)
chain: B1 chain with A147S, S157T, R158S
notes: human ACAD9, residues 38-621, A184S and SR194TS combined (mimics the VLCAD gatekeeper loop); source: E. coli C43 (DE3), purified (HisTrap, dialysed in SEC buffer)
B4: ACAD9_(VLCAD) (enzyme, human, UniProt Q9H845 38-621, looked up)
chain: B1 chain with L364M, L367M, Y369F, T370M
notes: human ACAD9, residues 38-621, residues 401-407 LGGLGYT replaced by the corresponding VLCAD residues 437-443 MGGMGFM; also called ACAD9 mutated to mimic VLCAD; source: E. coli C43 (DE3), purified (HisTrap, dialysed in SEC buffer)
B5: ECSIT_(CTER-W324A) (domain or fragment, human, UniProt Q9BQ95 221-431, looked up)
chain: T1 chain with W104A
notes: human ECSIT, residues 221-431, W324A; also called ECSIT-W324A; ECSIT_(W324A); source: E. coli BL21 Star (DE3), purified (HisTrap, SEC)
B6: ECSIT_(CTER-Y327A) (domain or fragment, human, UniProt Q9BQ95 221-431, looked up)
chain: T1 chain with Y107A
notes: human ECSIT, residues 221-431, Y327A; also called ECSIT_(Y327A); source: E. coli BL21 Star (DE3), purified (HisTrap, SEC)
B7: ECSIT_(CTER-Y328F) (domain or fragment, human, UniProt Q9BQ95 221-431, looked up)
chain: T1 chain with Y108F
notes: human ECSIT, residues 221-431, Y328F; also called ECSIT_(Y328F); source: E. coli BL21 Star (DE3), purified (HisTrap, SEC)
B8: ECSIT_(CTER-Y328A) (domain or fragment, human, UniProt Q9BQ95 221-431, looked up)
chain: T1 chain with Y108A
notes: human ECSIT, residues 221-431, Y328A; also called ECSIT_(Y328A); source: E. coli BL21 Star (DE3), purified (HisTrap, SEC)
B9: ECSIT_(CTER-Y327F) (domain or fragment, human, UniProt Q9BQ95 221-431, looked up)
chain: T1 chain with Y107F
notes: human ECSIT, residues 221-431, Y327F; also called ECSIT_(Y327F); source: E. coli BL21 Star (DE3), purified (HisTrap, SEC)
B10: VLCADWT (very long chain acyl-CoA dehydrogenase, res. 72-655) (enzyme, human, UniProt P49748 72-655, looked up)
chain: SFAVGMFKGQLTTDQVFPYPSVLNEEQTQFLKELVEPVSRFFEEVNDPAKNDALEMVEETTWQGLKELGAFGLQVPSELGGVGLCNTQYARLVEIVGMHDLGVGITLGAHQSIGFKGILLFGTKAQKEKYLPKLASGETVAAFCLTEPSSGSDAASIRTSAVPSPCGKYYTLNGSKLWISNGGLADIFTVFAKTPVTDPATGAVKEKITAFVVERGFGGITHGPPEKKMGIKASNTAEVFFDGVRVPSENVLGEVGSGFKVAMHILNNGRFGMAAALAGTMRGIIAKAVDHATNRTQFGEKIHNFGLIQEKLARMVMLQYVTESMAYMVSANMDQGATDFQIEAAISKIFGSEAAWKVTDECIQIMGGMGFMKEPGVERVLRDLRIFRIFEGTNDILRLFVALQGCMDKGKELSGLGSALKNPFGNAGLLLGEAGKQLRRRAGLGSGLSLSGLVHPELSRSGELAVRALEQFATVVEAKLIKHKKGIVNEQFLLQRLADGAIDLYAMVVVLSRASRSLSEGHPTAQHEKMLCDTWCIEAAARIREGMAALQSDPWQQELYRNFKSISKALVERGGVVTSNPLGF
notes: human very long-chain acyl-CoA dehydrogenase (VLCAD), residues 72-655; plasmid ACADVL from Addgene #38838; VLCAD-related constructs were cloned into pNIC28-BSA; also called ACADVL; source: E. coli Rosetta 2 (DE3), purified (HisTrap, SEC)

Substitutions are numbered along the chain they refer to. Names and notes keep the numbering of the source.

In data set [1] the target is VLCAD_(ACAD9) (human) (UniProt P49748). As to the kind of experiment: mass photometry; ACAD9 (or VLCAD) at 20-50 nM in 25 mM HEPES pH 7.5, 250 mM NaCl, or diluted in 4.8 uM ECSIT solution for complex formation.
Data set [2] deals with the molecule itself. Briefly: cryo-EM structure; ACAD9WT-ECSIT_(CTER) reconstituted (molar ratio 1:1.25) and purified by gel filtration; 25 mM HEPES, 300 mM NaCl, 1 mM TCEP, pH 7.5; C2 symmetry imposed. In general terms: Size exclusion chromatography separates by hydrodynamic size, large species first.
Data set [3] has as its target T1, ECSIT_(CTER) (residues 221-431). As to the kind of experiment: ITC. (Isothermal titration calorimetry measures the heat released or taken up as one component is titrated into another.)
Data set [4] concerns the molecule itself. Briefly: mass photometry; ACAD9 (or VLCAD) at 20-50 nM in 25 mM HEPES pH 7.5, 250 mM NaCl, or diluted in 4.8 uM ECSIT solution for complex formation.
In data set [5] the target is B1. As to the kind of experiment: dynamic light scattering; 278 K, protein at 1-2 mg/ml; complexes reconstituted at molar ratio 1:1.25. As to conditions: both partners purified.

The term stoichiometry N denotes the number of molecules, sites or subunits per partner or assembly. In data set [1], “VLCAD_(ACAD9) (from UniProt P49748 72-655) (enzyme)” came in with a stoichiometry N of 2.
The term Kd denotes the free concentration of one partner at which half of the binding sites on the other are occupied at equilibrium, for simple one-to-one binding. High values mean a looser complex, low ones a tighter complex. For the molecule B1, the “stoichiometry N” value in data set [2] was 2. Further, binding in data set [3] was characterised by a dissociation constant (Kd) of 1450 nM.
With B2, the “stoichiometry N” value in data set [4] is 2.
The same measure, in the same setting: the figure for B3 is 2.
Still for that read-out and setting: then B4, with 2.
Turning to B5, in data set [5], the binding result is “binds”.
Still for that read-out and setting: the entry for B6 is “binds”; for B7 it is “binds”.
On the same count and under the same terms, the entry for B8 is “binds”; for B9 it is “binds”.
On to B10, for which the “stoichiometry N” value in data set [4] was 2.
